Results taken from patent US20180021429A1, “ANTICANCER AGENTS OR ANTIMETASTATIC AGENTS USING FSTL1 AND COMBINATION DRUG THEREOF” (PHARMA FOODS INTERNATIONAL CO., LTD., priority 2015, published 2018).
“Also recorded” adds a separate entry of the source.

B1: #8-1: chicken-mouse chimeric anti-FSTL1 antibody clone; variable regions SEQ ID NO: 791 (light), 793 (heavy) (antibody, V domains shown)
VH: AVTLDESGGGLQTPGGALSLVCKGSGFTFSSFNMFWVRQAPGKGLEWVAGIGKDGVPKYGAAVDGRATISKDNGQSTMRLQLNNLRAEDTGTYFCAKAAGGCSYDWCGIYAGDIDTWGHGTEVIVSS
VL: ASTQPSSVSANPGEAVKITCSGGSGSYYGWYQQKSPGSAPVTVIYNNNQRPSDIPSRFSGSKSGSTATLTITGVQAEDEAVYFCGGYDSSSGHGGIFGAGTTLTVL
modifications: mouse constant regions
B2: #6-55: chicken-mouse chimeric anti-FSTL1 antibody clone; variable regions SEQ ID NO: 783 (light), 785 (heavy) (antibody, V domains shown)
VH: AVTLDESGGGLQTPGGALSLVCKGSGFTFTSVTMQWVRQAPGKGLEWVASVCSGSSTYYAPAVKGRATISRDNGQSTVRLQLSNLRPEDTGTYYCAKIAGRARWSCTSAAYNIDAWGHGTEVIVSS
VL: ASTQPSSVSAIPGETVKITCSGGGNNYGWYQQRSPGSAPVTVIYYNDNRPSNIPSRFSGSTSGSTSTLTITGVQADDEAIYYCGSWDSNTDSGIFGAGTTLTVL
modifications: mouse constant regions

Experiments:
[1] = test system: GFP-positive and Snail-positive B16-F10 tumor cells; assay: Snail-positive B16-F10 bone metastasis model, intraperitoneal administration (Example 18); assay type: in vivo, mouse; conditions: intraperitoneal 10 mg/kg on days 5 and 10; FIG. 106A
Excerpt: 1. Experiment Group (n=5) • 1. No treatment (0.9% NaCl as a sham) • 2. Control IgG (anti-DNP) • 3. Anti-FSTL1 Clone #6-55 • 4. Anti-FSTL1 Clone #7-34 • 5. Anti-FSTL1 Clone #8-1 […]
• Effects on the growth of subcutaneous tumor (calculation of tumor volume by tumor size measurement): measured 7, 11, and 14 days after tumor implantation (FIG. 106B) • Effects on bone metastasis (GFP-positive tumor cells in bone marrow or the spleen) (FIGS. 106A and 106C) • Effects on MSC expansion (CD45− negative cells in bone marrow or the spleen) (FIGS. 106A and 106C) • Effects on weight loss (FIG. 106A) • Effects on the expansion of immunosuppressive Treg cells (CD4-positive and Foxp3-positive cells in the spleen) (FIG. 106C) • Other immunosuppressive properties (FIG. 106C)
In Example 17, the antibody was administered into tumor according to the purpose of “inhibiting metastasis from a primary focus to bone” as previously conducted by the present inventors. […] Specifically, antitumor effects and immunosuppression-mitigating effects were comparatively analyzed by the intraperitoneal administration (systemic administration) of the anti-FSTL1 antibody using bone metastasis models in which mouse melanoma cells (B16-F10) forced to express Snail were subcutaneously and intravenously transplanted in C57BL/6N mice. […]

[2] = test system: induction of MSCs having the ability to differentiate into adipocytes; assay: Ability to differentiate into adipocytes (Examples 14, 16); assay type: cell-based, mouse; conditions: Example 16, FIG. 10B/40B; antibody 2.5-20.0 μg/ml
Description: The antibody clone (#6-55, #7, #10, #13, or […]) was evaluated for its activity by the same testing method as in Example 13. #6-55 was set as a positive control for activity. […] Mouse bone marrow cells were supplemented with FSTL1 and the predetermined concentration of each antibody and cultured for 8 days. 5×10^4 cells/well were separated from each culture system and evaluated for the ability to differentiate into adipocytes using an adipocyte differentiation reagent included in “Mesenchymal Stem Cell Functional Identification Kit (R&D Systems, Inc., Cat. No. SC010)”. For the evaluation method, the cells were supplemented with the adipocyte differentiation reagent and cultured for 8 days. Then, adipocytes per culture system were counted under a microscope for evaluation. […]
In the same way as in Example 15, mouse bone marrow cells were supplemented with FSTL1 and the predetermined concentration of each antibody and cultured for 8 days. 5×10^4 cells/well were separated from each culture system and evaluated for the ability to differentiate into adipocytes using an adipocyte differentiation reagent included in “Mesenchymal Stem Cell Functional Identification Kit (R&D Systems, Inc., Cat. No. SC010)”. […] Then, adipocytes per culture system were counted under a microscope for evaluation (FIG. 10B). […]

mouse lymphoma EL4 = assay: In vivo lymphoma model (Example 23); conditions: intraperitoneal 10 mg/kg on days 3 and 6; vs control antibody
Description: The drug efficacy of the anti-FSTL1 antibody was evaluated according to Examples 17 to 20 using mouse lymphoma EL4, which is a cancer type having enhanced FSTL1 expression.
1. Experiment Group (n=5) • 1. Mouse lymphoma EL4+control IgG (anti-DNP mAb) • 2. Mouse lymphoma EL4+anti-FSTL1 mAb (#6-55)
• Day 0: transplantation of tumor cells (1×10^6 cells subcutaneously & 1×10^6 cells intravenously) • Day 3: intraperitoneal administration of the antibody (first dose, corresponding to 200 μg/mouse=10 mg/kg) • Day 6: intraperitoneal administration of the antibody (second dose, corresponding to 200 μg/mouse=10 mg/kg) • Day 15: various immunological assays
• Effects on the growth of subcutaneous tumor (calculation of tumor volume by tumor size measurement): measured 3, 6, and 10 days after tumor implantation

Panc1-snail+ = assay: Action of anti-FSTL1 antibody on Panc1-snail+ cells forced to express Snail (invasion, CCR2 and RANKL expression); assay type: cell-based, human; conditions: antibody 5 μg/ml
Description: Cell invasion was evaluated in the presence of the anti-FSTL1 antibody (#6-55, 5 μg/ml) or a control antibody (aHema, 5 μg/ml) in a chamber using Panc1-snail+, a cell line forced to express Snail, instead of the FSTL1-stimulated tumor cells of the preceding paragraph.
(§1) In this Example, Panc1-snail+ cells were cultured for 3 days in the presence of the added antibody. Then, the expression of CCR2 and RANKL among molecules known as bone metastasis markers was analyzed by flow cytometry. […] The anti-FSTL1 antibody presumably has inhibitory activity against cell invasion (FIG. 50D).
as §1, with “82D).” for “50D).”

Molecule	anti-weight loss effect [1]	differentiation into adipocytes (induction of MSCs having the ability to differentiate into adipocytes) [2]	subcutaneous tumor growth (mouse lymphoma EL4)	cell invasion (Panc1-snail+)
B1	confirmed	–	–	–
B2	confirmed	inhibited by #6-55 in an antibody dose-dependent manner; also recorded: cells differentiating into adipocytes decreased in number by the addition of #6-55 in a dose-dependent manner	strongly suppressed	suppressive activity was able to be confirmed
